One sequence from US20140322717 can be followed below.

In this data set the test system is TspRI (Thermus sp.?). As to the kind of experiment: cleavage_in_vitro. Particulars: destruction of wild type PCR product during qPCR, 85 C denaturation.

For the sequence “AGACATACTTATTGACTCTAAGAGGAAAGATGAAGTACTATGTTTTAAAGAATATTATATTACAGAATTATAGAAATTAGATCTCTTACCTAAACTCTTCATAAAGCTTGCTCTGATAGGAAAATGAGATCTACTGTTTTCCTTTACTTACTACACCTCAGATATATTTCTTCATGAAGACCTCACAGTAAAAATAGGTGATTTTGGTCTAGCTACAGTGAAATCTCGATGGAGTGAGTCCCATCAGTTTGAACAGTTGTCTGGATCCATTTTGTGGATGGTAAGAATTGAGGCTATTTTTCCACTGATTAAATTTTTGGCCCTGAGATGCTGCTGAGTTACTAGAAAGTCATTGAAGGTCTCAACTATAGTATTTTCATAGTTCCCAGT (double strand) [B-raf synthetic wild type template]”, the activity was > 99%.
